Article PMC4288360

Target: T1, Recombinant mouse BMP-9 (bone morphogenetic protein 9) (mouse) (UniProt Q9WV56)
T1 sequence: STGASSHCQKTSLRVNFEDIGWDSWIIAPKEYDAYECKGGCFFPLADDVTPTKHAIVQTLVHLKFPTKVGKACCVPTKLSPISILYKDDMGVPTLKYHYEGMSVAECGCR

inhibition of BMP-9 (50 ng/ml)-induced alkaline phosphatase activity in murine VSMCs by ALK1-Fc (250 ng/ml and 1 μg/ml; value at 1 μg/ml), 4 days; blocks BMP-9 acting on ALK1 of the cells: 33%
B1: Activin receptor-like kinase-1 fusion protein (ALK1-Fc) (Fc fusion)
chain: DLAKPSKLVNCTCESPHCKRPFCQGSWCTVVLVREQGRHPQVYRGCGSLNQELCLGRPTEFLNHHCCYRSFCNHNVSLMLEATQTPSEEPEVDAHLP
